Measurements taken from the supplement of paper PMC11908140.

B1: library; numbered along this chain (parent)
chain: MRKPRAAVGSGHRKQAASQEGRQKHAKNNSQAKPSACDGLARQPEEVVLQASVSSYHLFRDVAEVTAFRGSLLSWYDQEKRDLPWRRRAEDEMDLDRRAYAVWVSEVMLQQTQVATVINYYTGWMQKWPTLQDLASASLEEVNQLWAGLGYYSRGRRLQEGARKVVEELGGHMPRTAETLQQLLPGVGRYTAGAIASIAFGQATGVVDGNVARVLCRVRAIGADPSSTLVSQQLWGLAQQLVDPARPGDFNQAAMELGATVCTPQRPLCSQCPVESLCRARQRVEQEQLLASGSLSGSPDVEECAPNTGQCHLCLPPSEPWDQTLGVVNFPRKASRKPPREESSATCVLEQPGALGAQILLVQRPNSGLLAGLWEFPSVTWEPSEQLQRKALLQELQRWAGPLPATHLRHLGEVVHTFSHIKLTYQVYGLALEGQTPVTTVPPGARWLTQEEFHTAAVSTAMKKVFRVYQGQQPGTCMGSKRSQVSSPCSRKKPRMGQQVLDNFFRSHISTDAHSLNSAAQ

Variants of: B1
Test: 8OG:A repair function score (normalized; synonymous = 0, nonsense = -1) (normalized log-likelihood score); higher = more repair activity (WT-like)
Details: with 8OG:A DNA repair reporter (GFP) in HEK-293 MUTYH KO cells
How it was run: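 MUTYH knockout HEK-293 cells carrying lentiviral MUTYH cDNA NNN codon-scan libraries were grown with 10 pg/ml doxycycline and co-transfected with mCherry and a GFP reporter of 8OG:A repair. Viable mCherry+ cells were sorted at 72 h into GFP+ (repair) and GFP− bins, with three replicates per tile, and tile amplicons were sequenced. Rosace fitness scores for each tile were turned into a normalized repair function score anchored on the synonymous and nonsense distributions. Synonymous medians were set to 0 and nonsense medians to -1, and variants below 300 counts per million at the start were dropped.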

First: S344W
Second: S344E
The “8OG:A repair function score” value of the first is lower: -0.0913 for the first, -0.0813 for the second.

Going from S344C to S344P, the “8OG:A repair function score” value falls from 0.0475 to -0.301.

Going from S344M to S344K, the “8OG:A repair function score” value rises from 0.0335 to 0.0408.

First: S344D
Second: S344F
The “8OG:A repair function score” value of the first is lower: -0.196 for the first, -0.0252 for the second.

Compared with S344T, S344Y is higher in “8OG:A repair function score” value: 0.00415 for the first, 0.0271 for the second.

Compared with S344R, S344Q is higher in “8OG:A repair function score” value: -0.0609 for the first, 0.019 for the second.

First: S344L
Second: S344N
The “8OG:A repair function score” value of the first is lower: 0.00107 for the first, 0.0332 for the second.

First: S344H
Second: S344I
The “8OG:A repair function score” value of the first is higher: 0.0531 for the first, -0.0592 for the second.

Going from S344A to S344V, the “8OG:A repair function score” value falls from 0.0466 to -0.00413.

First: A345Q
Second: A345I
The “8OG:A repair function score” value of the first is lower: -0.264 for the first, 0.0369 for the second.

First: A345F
Second: A345S
The “8OG:A repair function score” value of the first is lower: -0.165 for the first, -0.148 for the second.

First: A345V
Second: A345N
The “8OG:A repair function score” value of the first is higher: 0.0157 for the first, -0.356 for the second.

Compared with A345G, A345E is lower in “8OG:A repair function score” value: -0.243 for the first, -0.567 for the second.

Compared with A345D, A345Y is higher in “8OG:A repair function score” value: -0.542 for the first, -0.126 for the second.

Going from A345C to A345M, the “8OG:A repair function score” value falls from 0.0391 to -0.102.

Going from A345W to A345L, the “8OG:A repair function score” value rises from -0.174 to -0.04.

Going from A345K to A345H, the “8OG:A repair function score” value rises from -0.499 to -0.107.

Compared with A345P, A345R is lower in “8OG:A repair function score” value: -0.334 for the first, -0.408 for the second.

Going from A345T to E341S, the “8OG:A repair function score” value rises from -0.111 to -0.0269.

Compared with E341D, E341T is higher in “8OG:A repair function score” value: -0.0128 for the first, 0.0246 for the second.

Compared with E341I, E341G is lower in “8OG:A repair function score” value: -0.0537 for the first, -0.208 for the second.

Compared with E341C, E341R is higher in “8OG:A repair function score” value: -0.0275 for the first, 0.0117 for the second.

First: E341W
Second: E341Q
The “8OG:A repair function score” value of the first is higher: 0.0472 for the first, -0.0264 for the second.

First: E341H
Second: E341P
The “8OG:A repair function score” value of the first is higher: 0.0806 for the first, -0.0298 for the second.

Compared with E341N, E341V is lower in “8OG:A repair function score” value: -0.0613 for the first, -0.0649 for the second.

Compared with E341K, E341Y is higher in “8OG:A repair function score” value: -0.0881 for the first, -0.00525 for the second.

Going from E341F to E341L, the “8OG:A repair function score” value rises from -0.0534 to -0.00796.

Going from E341A to E342Y, the “8OG:A repair function score” value falls from 0.0808 to -0.0601.

Compared with E342N, E342F is lower in “8OG:A repair function score” value: 0.0275 for the first, -0.0595 for the second.

Compared with E342C, E342G is lower in “8OG:A repair function score” value: 0.0508 for the first, -0.00875 for the second.

First: E342P
Second: E342M
The “8OG:A repair function score” value of the first is lower: -0.298 for the first, 0.0246 for the second.

Compared with E342K, E342H is higher in “8OG:A repair function score” value: 0.0199 for the first, 0.0491 for the second.

First: E342W
Second: E342R
The “8OG:A repair function score” value of the first is lower: -0.279 for the first, 0.0113 for the second.

Compared with E342D, E342S is lower in “8OG:A repair function score” value: 0.0832 for the first, -0.0341 for the second.

First: E342Q
Second: E342V
The “8OG:A repair function score” value of the first is higher: 0.0267 for the first, -0.0483 for the second.

First: E342I
Second: E342T
The “8OG:A repair function score” value of the first is higher: -0.00523 for the first, -0.0198 for the second.

Going from E342A to E342L, the “8OG:A repair function score” value rises from -0.0199 to 0.0472.

First: P338R
Second: P338C
The “8OG:A repair function score” value of the first is higher: 0.00053 for the first, -0.0613 for the second.

First: P338I
Second: P338A
The “8OG:A repair function score” value of the first is higher: -0.0572 for the first, -0.066 for the second.

First: P338L
Second: P338Y
The “8OG:A repair function score” value of the first is lower: -0.061 for the first, -0.0269 for the second.

Compared with P338T, P338G is higher in “8OG:A repair function score” value: -0.0578 for the first, -0.0299 for the second.

Going from P338S to P338H, the “8OG:A repair function score” value rises from -0.0346 to -0.0311.

Compared with P338W, P338D is lower in “8OG:A repair function score” value: 0.053 for the first, -0.0378 for the second.

First: P338Q
Second: P338V
The “8OG:A repair function score” value of the first is higher: -0.00645 for the first, -0.0391 for the second.

Going from P338F to P338K, the “8OG:A repair function score” value rises from -0.101 to 0.0337.

First: P338N
Second: P338E
The “8OG:A repair function score” value of the first is higher: -0.066 for the first, -0.133 for the second.

Going from P338M to S343D, the “8OG:A repair function score” value falls from 0.0756 to 0.0576.

Going from S343Q to S343H, the “8OG:A repair function score” value rises from -0.144 to 0.00619.

First: S343E
Second: S343I
The “8OG:A repair function score” value of the first is higher: -0.015 for the first, -0.0485 for the second.

First: S343V
Second: S343Y
The “8OG:A repair function score” value of the first is lower: 0.0196 for the first, 0.129 for the second.

Going from S343N to S343W, the “8OG:A repair function score” value falls from -0.0331 to -0.0714.

Compared with S343C, S343P is lower in “8OG:A repair function score” value: 0.00733 for the first, -0.144 for the second.

First: S343R
Second: S343A
The “8OG:A repair function score” value of the first is higher: 0.0819 for the first, 0.0302 for the second.

Going from S343K to S343L, the “8OG:A repair function score” value falls from 0.133 to -0.124.

Going from S343G to S343M, the “8OG:A repair function score” value rises from -0.00518 to 0.0865.

First: S343F
Second: S343T
The “8OG:A repair function score” value of the first is higher: -0.0296 for the first, -0.0419 for the second.

First: R340Q
Second: R340N
The “8OG:A repair function score” value of the first is higher: -0.171 for the first, -0.24 for the second.

Going from R340I to R340W, the “8OG:A repair function score” value falls from -0.119 to -0.144.

First: R340M
Second: R340D
The “8OG:A repair function score” value of the first is higher: -0.107 for the first, -0.385 for the second.

Going from R340T to R340H, the “8OG:A repair function score” value falls from -0.0938 to -0.253.

Compared with R340A, R340G is lower in “8OG:A repair function score” value: -0.0533 for the first, -0.129 for the second.

Compared with R340V, R340L is higher in “8OG:A repair function score” value: -0.304 for the first, -0.211 for the second.

Going from R340K to R340Y, the “8OG:A repair function score” value falls from -0.0186 to -0.205.

Compared with R340E, R340F is lower in “8OG:A repair function score” value: -0.133 for the first, -0.491 for the second.

Going from R340C to R340S, the “8OG:A repair function score” value rises from -0.18 to -0.153.

Compared with R340P, K337N is higher in “8OG:A repair function score” value: -0.328 for the first, -0.132 for the second.

Going from K337Y to K337W, the “8OG:A repair function score” value rises from -0.118 to -0.0779.

First: K337P
Second: K337Q
The “8OG:A repair function score” value of the first is higher: 0.0544 for the first, -0.0917 for the second.

Compared with K337R, K337T is lower in “8OG:A repair function score” value: 0.000179 for the first, -0.131 for the second.

Going from K337S to K337V, the “8OG:A repair function score” value falls from -0.109 to -0.116.

First: T346H
Second: T346F
The “8OG:A repair function score” value of the first is lower: -0.35 for the first, -0.247 for the second.

Going from T346I to T346E, the “8OG:A repair function score” value falls from 0.0144 to -1.03.

Going from T346D to T346A, the “8OG:A repair function score” value rises from -0.917 to -0.0694.

Compared with T346C, T346G is lower in “8OG:A repair function score” value: 0.0316 for the first, -0.335 for the second.

First: P339A
Second: P339T
The “8OG:A repair function score” value of the first is lower: -0.12 for the first, -0.0529 for the second.

First: P339F
Second: P339E
The “8OG:A repair function score” value of the first is higher: -0.187 for the first, -0.374 for the second.

Compared with P339G, P339V is lower in “8OG:A repair function score” value: -0.00599 for the first, -0.0967 for the second.

First: P339Q
Second: P339L
The “8OG:A repair function score” value of the first is higher: -0.0157 for the first, -0.113 for the second.

Going from P339R to P339C, the “8OG:A repair function score” value falls from -0.0864 to -0.157.

First: P339W
Second: P339I
The “8OG:A repair function score” value of the first is lower: -0.126 for the first, -0.0749 for the second.

First: P339S
Second: P339Y
The “8OG:A repair function score” value of the first is higher: -0.0594 for the first, -0.144 for the second.

First: P339H
Second: P339M
The “8OG:A repair function score” value of the first is higher: 0.0544 for the first, -0.0671 for the second.

Going from P339D to P339K, the “8OG:A repair function score” value rises from -0.41 to -0.0247.

P339N was tested, and the “8OG:A repair function score” value was -0.17.
